Laboratory results taken from article PMC6242706 (Molecular Cell, 2018).
Changes are numbered by the printed parent chain. Names and notes keep the numbering of the source. One block for each binder: values may come before it.

Columns and labels:
Mouse UHRF1^ΔMW (3-782) [1] = biological target: T1, Mouse UHRF1^ΔMW (3-782) (mouse, UniProt Q8VDF2 3-782); assay: cross-linking
T1 sequence: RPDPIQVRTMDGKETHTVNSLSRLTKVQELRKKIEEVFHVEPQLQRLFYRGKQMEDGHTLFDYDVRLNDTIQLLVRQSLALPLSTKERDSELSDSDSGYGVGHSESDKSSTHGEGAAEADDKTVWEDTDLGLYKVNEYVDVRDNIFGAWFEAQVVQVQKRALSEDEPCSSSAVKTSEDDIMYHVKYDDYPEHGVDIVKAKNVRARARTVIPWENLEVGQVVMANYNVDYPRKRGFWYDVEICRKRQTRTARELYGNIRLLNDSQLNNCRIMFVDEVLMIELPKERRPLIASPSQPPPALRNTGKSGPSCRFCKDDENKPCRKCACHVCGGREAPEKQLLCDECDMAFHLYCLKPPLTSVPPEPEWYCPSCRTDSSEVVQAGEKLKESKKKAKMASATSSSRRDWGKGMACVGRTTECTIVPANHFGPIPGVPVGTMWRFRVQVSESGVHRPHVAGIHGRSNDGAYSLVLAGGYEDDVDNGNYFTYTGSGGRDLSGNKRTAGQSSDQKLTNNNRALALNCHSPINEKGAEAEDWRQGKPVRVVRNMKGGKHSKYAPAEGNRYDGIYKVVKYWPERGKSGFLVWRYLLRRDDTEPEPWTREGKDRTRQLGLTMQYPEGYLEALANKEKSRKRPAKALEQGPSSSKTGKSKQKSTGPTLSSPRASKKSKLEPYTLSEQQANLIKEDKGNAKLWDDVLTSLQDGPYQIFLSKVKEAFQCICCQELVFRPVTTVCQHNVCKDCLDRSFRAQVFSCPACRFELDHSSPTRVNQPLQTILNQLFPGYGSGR

[2] = biological target: T2, Mouse UHRF1 (1-782), wild-type with the native N terminus (mouse, UniProt Q8VDF2 1-782); assay: cross-linking
T2 sequence: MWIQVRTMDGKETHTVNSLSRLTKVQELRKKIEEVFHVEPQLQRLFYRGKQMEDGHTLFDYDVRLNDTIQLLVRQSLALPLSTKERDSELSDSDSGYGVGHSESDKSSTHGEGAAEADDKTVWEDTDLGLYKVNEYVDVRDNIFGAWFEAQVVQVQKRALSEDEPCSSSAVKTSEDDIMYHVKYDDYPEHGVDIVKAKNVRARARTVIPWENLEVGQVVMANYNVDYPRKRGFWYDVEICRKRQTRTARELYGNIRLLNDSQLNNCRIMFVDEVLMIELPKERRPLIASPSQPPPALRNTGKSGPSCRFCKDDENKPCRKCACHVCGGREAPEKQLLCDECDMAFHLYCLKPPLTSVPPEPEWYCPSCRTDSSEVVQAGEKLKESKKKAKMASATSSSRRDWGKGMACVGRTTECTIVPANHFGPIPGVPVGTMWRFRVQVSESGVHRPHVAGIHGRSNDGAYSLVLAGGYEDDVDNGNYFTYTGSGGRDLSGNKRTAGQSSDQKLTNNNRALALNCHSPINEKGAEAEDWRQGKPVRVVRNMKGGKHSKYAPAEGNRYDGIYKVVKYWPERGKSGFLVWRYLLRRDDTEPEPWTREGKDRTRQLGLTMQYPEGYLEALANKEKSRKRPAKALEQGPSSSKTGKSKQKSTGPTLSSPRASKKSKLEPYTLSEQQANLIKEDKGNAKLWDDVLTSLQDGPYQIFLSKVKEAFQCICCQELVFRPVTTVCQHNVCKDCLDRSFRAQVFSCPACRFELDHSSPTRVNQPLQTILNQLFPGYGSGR

[3] = biological target: T2, Mouse UHRF1 (1-782), wild-type with the …; assay: pull-down
Mouse UHRF1^ΔMW (3-782) [4] = biological target: T1, Mouse UHRF1^ΔMW (3-782); assay: pull-down
[5] = biological target: T3, Mouse UHRF1 (1-782) F46A point mutant (mouse, UniProt Q8VDF2 1-782, F46A); assay: pull-down
T3 sequence: T2 sequence with F46A

binding result (Mouse UHRF1^ΔMW (3-782) [1]): binds | binding result [2]: binds
B1: UbcH5a (human UBE2D1), without GST (enzyme)
chain: not shown

binding result [3]: binds
B2: GST-UbcH5a S22R (human UBE2D1 S22R) (enzyme)
chain: not shown

binding result (Mouse UHRF1^ΔMW (3-782) [4]): binds | binding result [5]: binds | binding result [3]: binds
B3: GST-UbcH5a (human UBE2D1, wild-type) (enzyme)
chain: not shown
